According to the MegaScale stability set (Tsuboyama et al. 2023):

B1: EHEE_rd2_1257 (parent)
chain: EEERTFTNEEEARKAKKEAEKRGLRVTVTKDGTTWRVRIG

Variants of: B1
Assay: folding stability dG (cDNA display proteolysis); higher = more stable
Details: PBS, room temperature

Folding stability dG [kcal/mol], by site and new letter:
T5: W 2.45, S 1.69, Y 2.17, G 0.704, P 0.253, M 1.94, K 1.17, Q 1.6, I 2.56
K14: A 2.31, F 1.94, T 1.93, H 2.01, Q 2.18, W 1.94, G 1.49
K16: R 1.75, W 2.37, L 1.95, F 2.35, N -0.159, A 3.56, T 1.89, V 3, M 2.66
A19: Y 2.37, F 2.11, G 1.06, I 1.53, N 0.597, S 0.779, W 2.02, M 2.11, E 0.159
T33: M 2, P 2.58, K 2.05, E 2.77, N 2.63, Y 2.15, G 2.28, S 2.15, V 1.84
A12: T 0.316, L 0.876, M 2.08, I -0.149, C 2, Y 1.34
R38: A 1.71, S 1.93, T 2.33, E 1.48, Y 2.17, Q 1.74, K 2.08
E18: H 1.43, V 1.3, L 1.64, N 1.48, I 1.48, D 1.91, A 1.84, M 1.72, S 1.4
V37: E 0.078, I 1.7, M 1.61, W 0.056, C 1.05
E20: R 1.11, L 1.69, W 1.27, Q 1.67, S 0.861, D 0.837, M 1.66, A 1.2, Y 1.03, C 1.45
D31: K 1.34, T 1.76, W 1.51
R13: L 2.96, H 2.19, I 2.74, N 2.35, Y 2.92, F 2.73, W 2.73, S 1.82
G32: L 0.595, Q 0.902, D 1.26, E 1.26, Y 0.01, A 0.985, R 0.337, T 0.399, V 0.363
K30: P 0.867, I 1.66, S 2.14, A 1.53, E 1.31, H 2.22, Y 3.22, N 1.9, V 1.83
R22: W 1.72, D 1.09, V 1.45, N 1.72, E 1.23, S 1.44, G 1.02, C 1.55, H 1.72, A 1.91, T 1.06
A15: K 0.42, G -0.185, V 1.72, L 2.02, W 3.04, N 0.555, H 1.67, D 0.155, M 1.87
E1: A 2.21, S 2.02, L 2.33, T 2.19, K 1.7, N 1.87, V 2.57, P 2.07, D 2.1, F 2.99, Q 1.94, G 2.25
T27: H 1.57, M 1.53, N 1.15, S 1.77, Y 1.92, D 1.05, E 1.64, L 1.58, Q 1.49
E11: H 1.32, F 0.906, K 0.826, C 1.56, Y 0.886, N 1.18, V 0.538, G 1.34, Q 1.58, W 1.07
T34: G 1.83, I 2.63, N 2.02, L 2.76, S 1.82, K 1.97, Q 1.97, M 2.37, F 2.53, E 1.81
E3: M 1.88, N 1.37, W 2.3, P 0.936, L 2, K 0.758, A 1.34, R 0.931, H 1.42, V 2.33, D 1.67
G23: W 0.38, R 0.397, K 0.384, Y 0.68, M 0.537, S 0.399, L 0.537, E -0.609, D -0.065, Q 0.383
E10: H 1.96, G 1.81, K 2.07, R 2.23, M 2.02, D 2.01, S 1.89, V 1.86, L 2.11
V26: I 0.589, S 0.809, P -0.777, A 2.13
R4: L 2.8, Q 2, W 3.03, H 2.17, G 1.14, F 2.97, D 0.771, E 1.37, M 2.53, A 1.59, Y 2.93, I 2.38, S 1.46, N 1.14
L24: E 0.879, R 1.19, F 2.15, G 0.057, K 1.18, Q 1.41, S 0.594, A 0.982, V 1.21
E9: F 2.37, T 0.236, H 1.45, Q 1.58, S 1.35, D 0.502, P 1.47
K17: H 2.24, E 2.7, Q 2.36, R 2.3, D 2.44, G 1.78
T7: G 1.68, N 1.98, R 1.58, D 2.25, F 2, V 1.7, Q 1.83, P 1.69, E 1.94, Y 2.06, M 1.89, A 1.87
K21: R 2.19, F 1.89, L 2.31, V 1.82, N 2.06, H 1.82, Q 2.17
W35: D -0.409, R 0.023, A -0.238, S -0.143, V 0.55, G -0.505, Q -0.107
V28: T 0.613, A -0.179, Q -0.917, Y 0.822
E2: S 2.06, F 2.6, T 2.18, Q 1.99, N 1.81, Y 2.85, A 1.75, G 1.66
R36: C 1.91, S 1.17, F 2.23, P 0.209, G -0.199, K 2.08, V 2.78, A 0.9, Y 2.47, T 2.15
F6: L 0.227, M 0.184
G40: Q 2.38, M 2.55, W 3.26, R 2.08, D 2.18, Y 3.08, I 2.71, V 2.73, P 0.916, N 2.07, A 2.19, H 2.68
I39: T 1.27, P 0.239, R -0.309, A 0.675, G -0.238, Y 1.66, N -0.51, F 1.75, Q 0.241, L 1.31
N8: Y 0.987, M 1.18, I 1.39, K 1.5, S 2.31
T29: H 1.7, W 2.6, A 1.29, M 1.83, N 1.09, L 1.8, C 1.83
R25: L 1.87, E 1.5, D 1.23, V 1.93, G 0.797, M 1.81, H 2.15, K 2.06, Y 2.07, I 1.95
